Results reported in US20040038340.

How the values were obtained:
[1] = target: T1, HPr(His)6 from B. subtilis, P08877
T1 chain: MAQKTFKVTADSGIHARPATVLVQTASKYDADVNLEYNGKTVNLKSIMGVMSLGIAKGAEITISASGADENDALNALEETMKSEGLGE

[2] = target: T2, P-Ser-HPr(His)6 from B. subtilis, P08877
T2 chain: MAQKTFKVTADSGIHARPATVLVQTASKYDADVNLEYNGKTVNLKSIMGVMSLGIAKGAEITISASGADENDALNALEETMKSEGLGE

B1: His-tagged L. casei HprK (protein)
chain: MADSVTVRQLVKATKLEVYSGEEYLDQRQVVLSDISRPGLELTGYFNYYPHERIQLFGRTEISFARNMSSEERLLILKRMATEDTPAFLVSRGLEAPAEMITAATAAHIPVLGSRLPTTRLSSLITEYLDSQLAERRSMHGVLVDIYGLGVLITGDSGVGKSETALELVQRGHRLIADDRVDVYQQDEQTIVGAAPPILSHLLEIRGLGIIDVMNLFGAGAVREDTTISLIVHLENWTPDKTFDRLGSGEQTQLIFDVPVPKITVPVKVGRNLAIIIEVAAMNFRAKSMGYDATKTFEKNLNHLIEHNEETDQNSSGDK
[1]
  HPr kinase activity (ATP-dependent HPr phosphorylation, non-denaturing gel): HprK of L. casei was indeed found to be bifunctional
[2]
  P-Ser-HPr phosphatase activity (non-denaturing gel): HprK of L. casei was indeed found to be bifunctional
